The source of these data is publication PMC10342119, “ABF1 Positively Regulates Rice Chilling Tolerance via Inducing Trehalose Biosynthesis” (International Journal of Molecular Sciences, 2023).

One series concerns the target T1, His-SAPK10 (rice (Oryza sativa L.), UniProt Q75H77 1-362).
T1 construct: SAPK10, SnRK2-type Ser/Thr protein kinase of rice; the CDS was fused into pET-28a; source: E. coli Transetta (DE3), purified (6x His-Tagged Protein Purification Kit); not shown: His, N-terminal, kept
T1 sequence (looked up): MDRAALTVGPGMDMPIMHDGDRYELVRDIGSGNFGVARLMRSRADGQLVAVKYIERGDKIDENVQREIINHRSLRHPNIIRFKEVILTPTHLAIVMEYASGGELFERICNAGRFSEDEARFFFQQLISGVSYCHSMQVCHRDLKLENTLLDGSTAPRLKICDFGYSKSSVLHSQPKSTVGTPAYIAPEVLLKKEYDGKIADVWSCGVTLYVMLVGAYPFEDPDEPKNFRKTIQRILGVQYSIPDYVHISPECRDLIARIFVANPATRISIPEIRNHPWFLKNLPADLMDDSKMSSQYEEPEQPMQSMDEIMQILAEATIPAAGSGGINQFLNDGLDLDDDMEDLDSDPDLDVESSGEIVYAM
Put plainly: pull-down; GST pull-down on glutathione magnetic agarose beads; 50 mM Tris-HCl pH 7.5, 5% glycerol, 1 mM EDTA, 1 mM DTT, 1 mM PMSF, 0.01% Nonidet P-40, 150 mM KCl; 4 °C for 2 h; blots with anti-His and anti-GST. The note with it: both partners purified.

For another series, the target named is T2, GST-ABF1 (Oryza sativa L. ssp. japonica cv …, UniProt Q0JHF1 1-266).
T2 sequence: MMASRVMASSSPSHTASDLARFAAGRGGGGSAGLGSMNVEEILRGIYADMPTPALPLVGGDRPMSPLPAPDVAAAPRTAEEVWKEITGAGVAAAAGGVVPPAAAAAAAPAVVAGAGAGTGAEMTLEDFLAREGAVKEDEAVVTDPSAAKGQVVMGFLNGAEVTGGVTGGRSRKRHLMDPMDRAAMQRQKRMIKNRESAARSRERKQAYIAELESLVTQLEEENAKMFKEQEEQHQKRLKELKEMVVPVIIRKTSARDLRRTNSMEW
Description: EMSA; binding lost with unlabeled probe; EMSA/gel-shift binding buffer (composition, pH and temperature not stated); 20 fmol biotin-labeled probe; 6% acrylamide gel. The conditions noted are these: protein: recombinant; tags: N-terminal GST (pGEX-4T-1); chain copies: 2; label: biotin; blunt. (In general: Mobility shift assays separate free from complexed probe on a gel.)

B1: GST-ABF1 (natural protein, rice (Oryza sativa L.), UniProt Q0JHF1 1-266, looked up)
chain: MMASRVMASSSPSHTASDLARFAAGRGGGGSAGLGSMNVEEILRGIYADMPTPALPLVGGDRPMSPLPAPDVAAAPRTAEEVWKEITGAGVAAAAGGVVPPAAAAAAAPAVVAGAGAGTGAEMTLEDFLAREGAVKEDEAVVTDPSAAKGQVVMGFLNGAEVTGGVTGGRSRKRHLMDPMDRAAMQRQKRMIKNRESAARSRERKQAYIAELESLVTQLEEENAKMFKEQEEQHQKRLKELKEMVVPVIIRKTSARDLRRTNSMEW
notes: ABF1 (bZIP12), bZIP transcription factor of rice; the CDS was fused into pGEX-4T-1; also called bZIP12; source: E. coli Transetta (DE3), purified (GST-Sefinose Kit); not shown: GST, N-terminal, kept
As for B1, in the series with His-SAPK10, the binding result was “binds”.

B2: TPS2 promoter probe (P3, G-box) (dsDNA)
DNA 1: CAGACCTGACGTCAGACGACGATTAGCCACGTGGCACACAGTGCACCCGACACGACGAA
DNA 2: TTCGTCGTGTCGGGTGCACTGTGTGCCACGTGGCTAATCGTCGTCTGACGTCAGGTCTG
Consider B2, for which the binding result with GST-ABF1 is “binds”.
